One protein from paper PMC3777949, “Dimerization Mediates Thermo-Adaptation, Substrate Affinity and Transglycosylation in a Highly Thermostable Maltogenic Amylase of Geobacillus thermoleovorans” (PLoS ONE, 2013) can be followed below.

Substrate in data set [1]: OC[C@H]1O[C@@H]2O[C@H]3[C@H](O)[C@@H](O)[C@@H](O[C@H]4[C@H](O)[C@@H](O)[C@@H](O[C@H]5[C@H](O)[C@@H](O)[C@@H](O[C@H]6[C@H](O)[C@@H](O)[C@@H](O[C@H]7[C@H](O)[C@@H](O)[C@@H](O[C@H]1[C@H](O)[C@H]2O)O[C@@H]7CO)O[C@@H]6CO)O[C@@H]5CO)O[C@@H]4CO)O[C@@H]3CO
The data set can be described thus: DNSA reducing-sugar assay. It counts as biochemical, Geobacillus thermoleovorans. The conditions noted are these: 100 mM sodium phosphate pH 7.0, 80°C, dimeric mutant. The text has this: (§1) DNSA reducing-sugar assay on dimeric Gt-Mamy

Substrate in data set [2]: OC[C@H]1O[C@@H]2O[C@H]3[C@H](O)[C@@H](O)[C@@H](O[C@H]4[C@H](O)[C@@H](O)[C@@H](O[C@H]5[C@H](O)[C@@H](O)[C@@H](O[C@H]6[C@H](O)[C@@H](O)[C@@H](O[C@H]7[C@H](O)[C@@H](O)[C@@H](O[C@H]8[C@H](O)[C@@H](O)[C@@H](O[C@H]1[C@H](O)[C@H]2O)O[C@@H]8CO)O[C@@H]7CO)O[C@@H]6CO)O[C@@H]5CO)O[C@@H]4CO)O[C@@H]3CO
The data set can be described thus: DNSA reducing-sugar assay. Format: biochemical, Geobacillus thermoleovorans. The conditions noted are these: 100 mM sodium phosphate pH 7.0, 80°C, dimeric mutant.
Description: as §1

B1: dimeric Gt-Mamy (Geobacillus thermoleovorans; D109E) (protein)
chain: MRKEAIHHRSTDNFAYAYDSETLHLRLQTKKHDVDHVELLFGDPYEWHDGAWQFQTMPMRKTGSDGLFDYWFAEVKPPYRRLRYGFVLRAGDEKLVYTEKGFYHEAPSEDTAYYFCFPFLHRVDLFQAPDWVKDTVWYQIFPERFANGNPAISPKGARPWGSEDPTPTSFFGGDLQGIIDHLDYLADLGITGIYLTPIFRAPSNHKYDTADYFEIDPHFGDKETLKTLVKRCHEKGIRVMLDAVFNHCGYEFAPFQDVLKNGAASRYKDWFHIREFPLQTEPRPNYDTFAFVPQMPKLNTAHPEVKRYLLDVATYWIREFDIDGWRLDVANEIDHEFWREFRQAVKALKPDVYILGEIWHDAMPWLRGDQFDAVMNYPFTDGALRFFAKEEISARQFADIMVRLLHSYPKHVNEAAFNLLGSHDTPRLLTICGDDVRKAKLLFLFQLTFTGSPCIYYGDEIGMTGGNDPECRKCMVWDPEKQNKELYEHVKQLIALRRQYRALRRGDVAFLAADDEANHLVYEKTDGNETVMIIINRSNEAAEIPMPIDARGKWLVNLLTGERFAAEAETLCVSLPPYGFVLYAVESW
notes: full length 588 aa, pCOLD I (Ni-NTA purified, tag kept), E. coli BL21(DE3); homodimer 145 kDa separated by Sephacryl S-200
As to B1, the Km was 0.21 mg/mL in data set [1] and 0.60 mg/mL in data set [2].
